Patent publication US20250009896A1, “SUPR[…] BASED VIRAL […] CAPTURE FOR PREVENTION AND THERAPY OF VIRAL INFECTION” (The Johns Hopkins University, priority 2023, published 2025)

Tests used:
[1] = target: T1, Recombinant human angiotensin-converting enzyme 2 (ACE2) protein, carrier-free (R&D Systems) (human), Q9BYF1; test: calculated reference value for the zeta potential of the mixture
[2] = target: T1, Recombinant human …

T1 sequence (Q9BYF1 18-740 limits assumed): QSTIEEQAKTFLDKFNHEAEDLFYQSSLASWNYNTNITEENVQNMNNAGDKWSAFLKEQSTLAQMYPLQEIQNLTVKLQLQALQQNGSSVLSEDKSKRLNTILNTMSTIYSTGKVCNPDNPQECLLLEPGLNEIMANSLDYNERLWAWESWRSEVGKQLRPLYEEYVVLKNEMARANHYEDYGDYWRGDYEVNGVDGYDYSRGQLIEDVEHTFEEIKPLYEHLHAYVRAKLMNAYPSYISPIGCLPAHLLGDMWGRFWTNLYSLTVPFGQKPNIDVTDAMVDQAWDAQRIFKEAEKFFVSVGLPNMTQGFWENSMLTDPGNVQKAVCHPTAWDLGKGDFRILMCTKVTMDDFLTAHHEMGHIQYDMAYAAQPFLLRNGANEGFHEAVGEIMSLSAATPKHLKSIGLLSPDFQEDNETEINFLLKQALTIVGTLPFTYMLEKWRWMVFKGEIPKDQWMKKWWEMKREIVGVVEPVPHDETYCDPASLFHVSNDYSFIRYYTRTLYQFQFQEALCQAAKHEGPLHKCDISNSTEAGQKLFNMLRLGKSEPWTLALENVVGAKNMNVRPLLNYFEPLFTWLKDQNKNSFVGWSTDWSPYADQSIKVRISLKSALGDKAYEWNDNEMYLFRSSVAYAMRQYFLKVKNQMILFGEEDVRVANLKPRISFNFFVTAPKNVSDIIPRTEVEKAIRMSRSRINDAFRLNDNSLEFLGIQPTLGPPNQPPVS

Binder VVVGKKGGYPKYPCTGSGSDGDELCGWYPHWPYR (modifications not checked) [sLigand peptide amphiphile (scrambled analog of Ligand)] has an intensity-averaged zeta potential calculated assuming no interaction [1] of -19 mV and a zeta potential of the mixture, measured [2] of -19.2 mV.
